Test results as given in FireProtDB (doi:10.1038/s41598-020-57873-3).

B1: N142P, Q8GB52 (parent)
chain: MLKKVLSCCIAATFGIYSASSLAQSSVINSTENSQQPIAPLVLASSDDAITDRYIVVLKQPQMLMNDAAGLQQFTQQTVGLMANSFSIKTDDVFDSSIIGFVANLDALQLKQLRRDSRVEYIEQDQILSIDPVVSNEAVQSNAIWGLDRIDQRNLPLDRNYNANFDGFGVTAYVIDTGVNNNHEEFGGRSVSGYDFVDNDADSSDCNGHGTHVAGTIGGSQYGVAKNVNIVGVRVLSCSGSGTTSGVISGVDWVAQNASGPSVANMSLGGGQSTALDSAVQGAIQSGVSFMLAAGNSNADACNTSPARVPSGVTVGSTTSSDSRSSFSNWGSCVDLFAPGSQIKSAWYDGGYKTISGTSMATPHVAGVAALYLQENNGLTPLQLTGLLNSRASENKVSDTRGTTNKLLYSLADSGCEPDCGGPTPGPDPDGKLVSGVPVNGLSGSRGQKDYFYMDLQQGQQLTVVTIGGTGDADLYLRFGDKPTLNTWDCRPYRSGNSETCTVNVTQSGRYHVMLNAYSAYSGLTLQANF

Variants of: B1
Conditions: Vibrio sp. PA-44, pH 8.6, Thermal, structure 1SH7, whole UniProt chain shown
[1] = CD, Glycine 25 mM, NaCl and CaCl2 100 mM and 15 mM
[2] = DSC, Glycine 25 mM, NaCl and CaCl2 100 mM and 15 mM
[3] = DSC, glycine, Nacl / Cacl2 100000 / 15000, transition: 2, reversible: no
[4] = CD, glycine, Nacl / Cacl2 100000 / 15000, transition: 2, reversible: no

Variant	Tm [1] [°C]	change of melting temperature, mutant - wild type (higher = more stable) [1] [°C]	Tm [2] [°C]	change of melting temperature, mutant - wild type (higher = more stable) [2] [°C]	unfolding enthalpy (calorimetric) [2] [kcal/mol]	Tm [3] [°C]	change of melting temperature, mutant - wild type (higher = more stable) [3] [°C]	unfolding enthalpy (calorimetric) [3] [kcal/mol]	Tm [4] [°C]	change of melting temperature, mutant - wild type (higher = more stable) [4] [°C]
MLKKVLSCCIAATFGIYSASSLAQSSVINSTENSQQPIAPLVLASSDDAITDRYIVVLKQPQMLMNDAAGLQQFTQQTVGLMANSFSIKTDDVFDSSIIGFVANLDALQLKQLRRDSRVEYIEQDQILSIDPVVSNEAVQSPAIWGLDRIDQRNLPLDRNYNANFDGFGVTAYVIDTGVNNNHEEFGGRSVSGYDFVDNDADSSDCNGHGTHVAGTIGGSQYGVAKNVNIVGVRVLSCSGSGTTSGVISGVDWVAQNASGPSVANMSLGGGQSTALDSAVQGAIQSGVSFMLAAGNSNADACNTSPARVPSGVTVGSTTSSDSRSSFSNWGSCVDLFAPGSQIKSAWYDGGYKTISGTSMATPHVAGVAALYLQENNGLTPLQLTGLLNSRASENKVSDTRGTTNKLLYSLADSGCEPDCGGPTPGPDPDGKLVSGVPVNGLSGSRGQKDYFYMDLQQGQQLTVVTIGGTGDADLYLRFGDKPTLNTWDCRPYRSGNSETCTVNVTQSGRYHVMLNAYSAYSGLTLQANF [N142P]	64.8	2.9	66.8	2.9	128	66.8	2.9	127	–	–
MLKKVLSCCIAATFGIYSASSLAQSSVINSTENSQQPIAPLVLASSDDAITDRYIVVLKQPQMLMNDAAGLQQFTQQTVGLMANSFSIKTDDVFDSSIIGFVANLDALQLKQLRRDSRVEYIEQDQILSIDPVVSNEAVQSPAPWGLDRIDQRNLPLDRNYNANFDGFGVTAYVIDTGVNNNHEEFGGRSVSGYDFVDNDADSSDCNGHGTHVAGTIGGSQYGVAKNVNIVGVRVLSCSGSGTTSGVISGVDWVAQNASGPSVANMSLGGGQSTALDSAVQGAIQSGVSFMLAAGNSNADACNTSPARVPSGVTVGSTTSSDSRSSFSNWGSCVDLFAPGSQIKSAWYDGGYKTISGTSMATPHVAGVAALYLQENNGLTPLQLTGLLNSRASENKVSDTRGTPNKLLYSLADSGCEPDCGGPTPGPDPDGKLVSGVPVNGLSGSRGQKDYFYMDLQQGQQLTVVTIGGTGDADLYLRFGDKPTLNTWDCRPYRSGNSETCTVNVTQSGRYHVMLNAYSAYSGLTLQANF [N142P I144P T404P]	69.2	7.3	73.6	9.7	167	73.6	9.7	166	69.2	7.3
MLKKVLSCCIAATFGIYSASSLAQSSVINSTENSQQPIAPLVLASSDDAITDRYIVVLKQPQMLMNDAAGLQQFTQQTVGLMANSFSIKTDDVFDSSIIGFVANLDALQLKQLRRDSRVEYIEQDQILSIDPVVSNEAVQSPAPWGLDRIDQRNLPLDRNYNANFDGFGVTAYVIDTGVNNNHEEFGGRSVSGYDFVDNDADSSDCNGHGTHVAGTIGGSQYGVAKNVNIVGVRVLSCSGSGTTSGVISGVDWVAQNASGPSVANMSLGGGQSTALDSAVQGAIQSGVSFMLAAGNSNADACNTSPARVPSGVTVGSTTSSDSRSSFSNWGSCVDLFAPGSQIKSAWYDGGYKTISGTSMATPHVAGVAALYLQENNGLTPLQLTGLLNSRASENKVSDTRGTTNKLLYSLADSGCEPDCGGPTPGPDPDGKLVSGVPVNGLSGSRGQKDYFYMDLQQGQQLTVVTIGGTGDADLYLRFGDKPTLNTWDCRPYRSGNSETCTVNVTQSGRYHVMLNAYSAYSGLTLQANF [N142P I144P]	67.8	5.9	72	8.1	155	72	8.1	154	67.8	5.9
